Test results: patent publication US20180362652A1 (Biogen, published 2018)
Like-named read-outs stand apart in the source and are kept apart here.

Columns and labels:
[1] = target: T1, monomeric huBDCA2 ectodomain (human, UniProt Q8WTT0 45-213); experiment: Octet, mAb from conditioned medium on anti-human Fc tips, monomeric huBDCA2 in solution
T1 construct: Prepared by proteolytic cleavage of the purified muIgG2a Fc-huBDCA2 fusion protein (pEAG2423); also called human BDCA2 ectodomain; human BDCA2 ECD
T1 sequence: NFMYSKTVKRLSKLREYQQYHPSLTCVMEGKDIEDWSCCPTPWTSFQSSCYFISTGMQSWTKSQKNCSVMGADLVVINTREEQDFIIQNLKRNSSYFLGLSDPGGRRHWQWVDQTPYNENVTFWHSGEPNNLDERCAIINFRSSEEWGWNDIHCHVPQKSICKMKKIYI
Description: Backmutation to the unpaired cysteine, i.e., S95C, was constructed by site-directed mutagenesis producing plasmid pYL749. Variants S95T, S95A, and S95V were constructed by site-directed mutagenesis producing plasmids pYL750, pYL751, and pYL752, respectively. The full-length light chain cDNA sequences in the resultant plasmids were confirmed by DNA sequencing. […] Conditioned medium was harvested at 2 days post-transfection. […] Conditioned medium containing the C95 variant mAbs was assayed by Octet for binding to human BDCA2 ectodomain. Antibodies from conditioned medium from transiently transfected cells were bound to anti-human Fc tips, then monomeric huBDCA2 was flowed over the Octet tips, to examine binding and dissociation.

[2] = target: T2, human BDCA2 (full-length, cell surface) (human, UniProt Q8WTT0 1-213); experiment: direct binding FACS, conditioned medium on CHO cells co-expressing human BDCA2 and FcεRIγ; column C (midpoint) of the printed 4-P fit, X in ng/ml; A 8.32, B 1, D 102, R^2 0.999
T2 construct: also called huBDCA2; surface human BDCA2
T2 sequence: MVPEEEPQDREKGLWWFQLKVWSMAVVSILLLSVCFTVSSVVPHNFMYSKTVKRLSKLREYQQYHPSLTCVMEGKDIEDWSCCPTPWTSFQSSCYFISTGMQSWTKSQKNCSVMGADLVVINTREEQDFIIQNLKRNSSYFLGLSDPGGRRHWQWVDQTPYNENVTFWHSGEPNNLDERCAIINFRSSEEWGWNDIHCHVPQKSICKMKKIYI
Description: (§1) Conditioned medium was assayed by direct binding FACS on stably transfected DG44 CHO cells co-expressing full-length BDCA2 and FcεRIγ cDNAs (human or cynomolgus monkey), (relevant expression vectors are human BDCA2/FcεRIγ: pEAG2456, cyno BDCA2/FcεRIγ: pEAG2668).

[3] = target: T3, cynomolgus monkey BDCA2 (full-length, cell surface, E73 SNP form) (cynomolgus monkey, UniProt Q8WTT0 1-213 (human entry)); experiment: direct binding FACS, conditioned medium on CHO cells co-expressing cynomolgus BDCA2 and FcεRIγ; column C (midpoint) of the printed 4-P fit, X in ng/ml; A 3.13, B 0.874, D 71.9, R^2 0.998
T3 construct: also called cyno BDCA2; surface cynomolgus monkey BDCA2
T3 chain: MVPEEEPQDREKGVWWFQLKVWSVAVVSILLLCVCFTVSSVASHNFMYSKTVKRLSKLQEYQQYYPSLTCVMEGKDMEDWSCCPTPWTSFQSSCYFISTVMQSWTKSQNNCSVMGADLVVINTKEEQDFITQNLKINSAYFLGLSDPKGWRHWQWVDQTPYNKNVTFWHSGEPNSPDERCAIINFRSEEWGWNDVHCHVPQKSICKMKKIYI
Description: as §1

[4] = target: T1, monomeric huBDCA2 ectodomain; experiment: Octet, mAb from conditioned medium on anti-human Fc tips, monomeric huBDCA2 in solution; remark: listed apart in the source
Description: The monomeric huBDCA2 ectodomain was prepared by proteolytic cleavage from the purified muIgG2a Fc-huBDCA2 fusion protein (relevant plasmid: pEAG2423). Antibodies from conditioned medium from transiently transfected cells were bound to anti-human Fc tips, and then monomeric huBDCA2 was flowed over the Octet tips, to examine binding and dissociation.

[5] = target: T3, cynomolgus monkey BDCA2 (full-length, …); experiment: direct binding FACS, conditioned medium on CHO cells co-expressing cynomolgus BDCA2 and FcεRIγ
Description: as §1

[6] = target: T2, human BDCA2 (full-length, cell surface); experiment: direct binding FACS, conditioned medium on CHO cells co-expressing human BDCA2 and FcεRIγ; column C (midpoint) of the printed 4-P fit, X in ng/ml; A 6.16, B 0.839, D 115, R^2 0.998
Description: as §1

[7] = target: T3, cynomolgus monkey BDCA2 (full-length, …); experiment: direct binding FACS, conditioned medium on CHO cells co-expressing cynomolgus BDCA2 and FcεRIγ; column C (midpoint) of the printed 4-P fit, X in ng/ml; A 4.01, B 1.09, D 68.9, R^2 0.998
Description: as §1

[8] = target: T2, human BDCA2 (full-length, cell surface); experiment: direct binding FACS, conditioned medium on CHO cells co-expressing human BDCA2 and FcεRIγ; column C (midpoint) of the printed 4-P fit, X in ng/ml; A 5.67, B 0.857, D 96.6, R^2 0.999
Description: as §1

[9] = target: T3, cynomolgus monkey BDCA2 (full-length, …); experiment: direct binding FACS, conditioned medium on CHO cells co-expressing cynomolgus BDCA2 and FcεRIγ; column C (midpoint) of the printed 4-P fit, X in ng/ml; A 2.43, B 0.789, D 70.7, R^2 0.999
Description: as §1

[10] = target: T2, human BDCA2 (full-length, cell surface); experiment: direct binding FACS, conditioned medium on CHO cells co-expressing human BDCA2 and FcεRIγ; column C (midpoint) of the printed 4-P fit, X in ng/ml; A 3.85, B 0.622, D 97.2, R^2 0.999
Description: as §1

[11] = target: T3, cynomolgus monkey BDCA2 (full-length, …); experiment: direct binding FACS, conditioned medium on CHO cells co-expressing cynomolgus BDCA2 and FcεRIγ; column C (midpoint) of the printed 4-P fit, X in ng/ml; A 1.62, B 0.79, D 41.8, R^2 1; the fit is extrapolated: the highest point drawn is at about 4000 ng/ml with MFI about 16, no plateau
Description: as §1

[12] = target: T2, human BDCA2 (full-length, cell surface); experiment: direct binding FACS on surface BDCA2, conditioned medium
[13] = target: T1, monomeric huBDCA2 ectodomain; experiment: Octet, mAb on anti-human Fc tips, monomeric huBDCA2 in solution
Description: Site-directed mutagenesis was performed using Agilent's QuikChange II mutagenesis kit following the manufacturer's recommended protocol. […] Mutated plasmids were identified by screening for the introduced restriction site changes. The full-length light chain cDNA sequences in the resultant plasmids were confirmed by DNA sequencing. […] Conditioned medium was harvested at 2 days post-transfection. […] Antibodies from conditioned medium from transiently transfected cells were bound to anti-human Fc tips, then monomeric huBDCA2 was flowed over the Octet tips, to examine binding and dissociation.

B1: hu24F4 H4/L1 (C95S) (antibody, V domains shown)
VH: DVQLVESGGGLVKPGGSLRLSCAASGFTFSTYTMSWVRQAPGKGLEWVATISPGDSFGYYYPDSVQGRFTISRDNAKNSLYLQMNSLRAEDTAVYYCTRDIYYNYGAWFAYWGQGTLVTVSS
VL: DIQLTQSPSSLSASVGDRVTITCKASQSVDYDGDSYMNWYQQKPGKAPKLLIYAASTLESGVPSRFSGSGSGTDFTLTISSLQPEDFATYYCQQSNEDPRTFGQGTKVEIK
notes: Human IgG1/kappa; also called 24F4-H4/L1 (YL740/YL746); 24F4S
Kd [1]: 0.548 nM
koff [1]: 0.000398 s⁻¹
kon [1]: 727000 M⁻¹ s⁻¹
EC50 [2]: 0.2 µg/mL
EC50 [3]: 0.21 µg/mL
Kd [4]: 0.744 nM
koff [4]: 0.000408 s⁻¹
kon [4]: 549000 M⁻¹ s⁻¹

B2: hu24F4 H0/L1 (antibody, V domains shown)
VH: EVQLVESGGGLVKPGGSLRLSCAASGFTFSTYTMSWVRQAPGKGLEWVSAISGSGGSTYYADSVKGRFTISRDNAKNSLYLQMNSLRAEDTAVYYCARDIYYNYGAWFAYWGQGTLVTVSS
VL: DIQLTQSPSSLSASVGDRVTITCKASQSVDYDGDSYMNWYQQKPGKAPKLLIYAASTLESGVPSRFSGSGSGTDFTLTISSLQPEDFATYYCQQSNEDPRTFGQGTKVEIK
notes: Humanized variant, human IgG1/kappa, conditioned medium of 293E cells; also called H0 series of hu24F4
binding result [5]: no binding (tested: about 6000 ng/ml)

B3: hu24F4 H5/L1 (antibody, V domains shown)
VH: DVQLVQSGGGLVKPGGSLRLSCAASGFTFSTYTMSWVRQAPGKGLEWVATISPGDSFGYYYPDSVQGRFTISRDNAKNSLYLQMNRLRAEDTAVYYCTRDIYYNYGAWFAYWGRGTLVTVSS
VL: DIQLTQSPSSLSASVGDRVTITCKASQSVDYDGDSYMNWYQQKPGKAPKLLIYAASTLESGVPSRFSGSGSGTDFTLTISSLQPEDFATYYCQQSNEDPRTFGQGTKVEIK
notes: Humanized variant, human IgG1/kappa, conditioned medium of 293E cells; also called H5 series of hu24F4
EC50 [6]: 0.309 µg/mL
EC50 [7]: 0.228 µg/mL

B4: hu24F4 H2/L1 (antibody, V domains shown)
VH: EVQLVESGGGLVKPGGSLRLSCAASGFTFSTYTMSWVRQAPGKGLEWVSTISPGDSSTIYYADSVKGRFTISRDNAKNSLYLQMNSLRAEDTAVYYCARDIYYNYGAWFAYWGQGTLVTVSS
VL: DIQLTQSPSSLSASVGDRVTITCKASQSVDYDGDSYMNWYQQKPGKAPKLLIYAASTLESGVPSRFSGSGSGTDFTLTISSLQPEDFATYYCQQSNEDPRTFGQGTKVEIK
notes: Humanized variant, human IgG1/kappa, conditioned medium of 293E cells; also called H2 series of hu24F4
binding result [5]: no binding (tested: about 7000 ng/ml)

B5: hu24F4 H6/L1 (antibody, V domains shown)
VH: DVQLVESGGGLVKPGGSLRLSCAASGFTFSTYTMSWVRQAPGKGLEWVATISGGNNYGYSYPDSVKGRFTISRDNAKNSLYLQMNSLRAEDTAVYYCTRDIYYNYGAWFAYWGQGTLVTVSS
VL: DIQLTQSPSSLSASVGDRVTITCKASQSVDYDGDSYMNWYQQKPGKAPKLLIYAASTLESGVPSRFSGSGSGTDFTLTISSLQPEDFATYYCQQSNEDPRTFGQGTKVEIK
notes: Humanized variant, human IgG1/kappa, conditioned medium of 293E cells; also called H6 series of hu24F4
EC50 [8]: 0.359 µg/mL
EC50 [9]: 0.501 µg/mL

B6: hu24F4 H1/L1 (antibody, V domains shown)
VH: EVQLVESGGGLVKPGGSLRLSCAASGFTFSTYTMSWVRQAPGKGLEWVSTISPGDSFGYYPDSVKGRFTISRDNAKNSLYLQMNSLRAEDTAVYYCARDIYYNYGAWFAYWGQGTLVTVSS
VL: DIQLTQSPSSLSASVGDRVTITCKASQSVDYDGDSYMNWYQQKPGKAPKLLIYAASTLESGVPSRFSGSGSGTDFTLTISSLQPEDFATYYCQQSNEDPRTFGQGTKVEIK
notes: Humanized variant, human IgG1/kappa, conditioned medium of 293E cells; also called H1 series of hu24F4
binding result [5]: no binding (tested: about 5000 ng/ml)

B7: hu24F4 H3/L1 (antibody, V domains shown)
VH: EVQLVESGGGLVKPGGSLRLSCAASGFTFSTYTMSWVRQAPGKGLEWVSTISPGDSFGYYYPDSVQGRFTISRDNAKNSLYLQMNSLRAEDTAVYYCARDIYYNYGAWFAYWGQGTLVTVSS
VL: DIQLTQSPSSLSASVGDRVTITCKASQSVDYDGDSYMNWYQQKPGKAPKLLIYAASTLESGVPSRFSGSGSGTDFTLTISSLQPEDFATYYCQQSNEDPRTFGQGTKVEIK
notes: Humanized variant, human IgG1/kappa, conditioned medium of 293E cells; also called H3 series of hu24F4
EC50 [10]: 0.984 µg/mL
Kd [4]: 13 nM
koff [4]: 0.00586 s⁻¹
kon [4]: 452000 M⁻¹ s⁻¹
EC50 [11]: 7.67 µg/mL

B8: ch24F4 C95S variant (antibody, human IgG1, kappa, V domains shown)
VH: DVKLVESGGGLVKPGGSLKLSCAASGFTFSTYTMSWVRQTPEKRLEWVATISPGDSFGYYYPDSVQGRFTISRDNAKNTLFLQMSSLKSEDTAMYYCTRDIYYNYGAWFAYWGQGTLVTVSA
VL: DIVLTQSPASLAVSLGQRATISCKASQSVDYDGDSYMNWYQQKPGQPPKLLIYAASTLESGVPARFSGSGSGTDFTLNIHPVEEEDAATYYCQQSNEDPRTFGGGTKLEIKR
notes: pYL672 with pEAG2678; conditioned medium of 293E cells
binding result [12]: binds
binding result [13]: binds

B9: ch24F4 C95T variant (antibody, human IgG1, kappa, V domains shown)
VH: DVKLVESGGGLVKPGGSLKLSCAASGFTFSTYTMSWVRQTPEKRLEWVATISPGDSFGYYYPDSVQGRFTISRDNAKNTLFLQMSSLKSEDTAMYYCTRDIYYNYGAWFAYWGQGTLVTVSA
VL: DIVLTQSPASLAVSLGQRATISCKASQSVDYDGDSYMNWYQQKPGQPPKLLIYAASTLESGVPARFSGSGSGTDFTLNIHPVEEEDAATYYCQQTNEDPRTFGGGTKLEIKR
notes: pYL672 with pEAG2679; conditioned medium of 293E cells
binding result [12]: binds
binding result [13]: binds
